{"source": "patent US20190119407A1", "about": "(Amgen, published 2019)", "binders": {"B1": {"name": "91D7 (antibody, human IgG2, kappa, V domains shown)", "VH": "QVQLQQWGAGLLKPSETLSLTCAVYGGSFSGYYWSWIRQPPGKGLEWIGEINPVGRTNYKPSLKSRVTISVDTSKNQFSLKLSSVTAADTALYYCARDNGWHYAFDIWGQGTMVTVSS", "VL": "DIQMTQSPSSLSASVGDRVTITCRASQNISSYLNWYQQRPGKAPNLLLFTASSLQSGVPSRFSGSGSGTDFTLTINSLQPEDFATYYCQQSYSNPPESSFGQGTKLEIKR", "notes": "also called iPS 427514"}, "B2": {"name": "87H11 (antibody, human IgG2, kappa, V domains shown)", "VH": "B1 VH with V2E, P53H, V54S, K60N, L92V, N99S, Y103F, A104S, G109D", "VL": "not shown", "notes": "also called iPS 427534"}, "B3": {"name": "77D12 (antibody, human IgG2, lambda, V domains shown)", "VH": "QVQLVQSGAEVKKPGASVRVSCKASGYTFTGFYMHWVRQAPGQGLEWMGWINPDSGGTNYAQKFQGRVTMTRDTSISTAYMELSRLRSDDTAVYYCAREGIAVALTYWGQGTLVTVSS", "VL": "QSVLTQPPSASGTPGQRVTISCSESNSDIGTNAVNWYQQFPGTAPKFLIYSNNKRPSGVPDRFSGSKSGTSASLAISGLQSEDEADYYCATWDDNLNGPLFGGGTKLTVLG", "notes": "also called iPS 427549"}, "B4": {"name": "23B3 VH3 (antibody, human IgG1, kappa, N297G, V domains shown)", "VH": "EVQLLESGGGLVQPGGSLRLSCAISGDSVSTNSVAWNWIRQAPGKGLEWVSRTYYRSKWYNDYAVSVKGRFTISPDTSKNTFYLQMNSLRAEDTAVYYCAREDGDSYYRYGMDVWGQGTTVTVSS", "VL": "DIQMTQSPSSLSASVGDRVTITCRSSQSVLYSSNNKNYLVWYQQKPGKVPKLLIYWASTRESGVPSRFSGSGSGTDFTLTISSLQPEDFATYYCQQYYKTPLTFGGGTKVEIKR", "notes": "also called 23B3 HC3; iPS 325336"}, "B5": {"name": "60G11 (antibody, human IgG2, lambda, V domains shown)", "VL": "QSVLTQPPSVSGAPGQRVTISCTGSGSNIGAGYDVHWYQQLPGTAPKLLIYGNSHRPSGIPDRFSGSKSGTSASLAITGLQAEDEADYYCQSYDSSLSGYVFGTGTKVTVLG", "V domain": "EVQLLESGGGLVQPGGSLRLSCAASGFTFSNYAMNWVRQAPGKGLEWVSVISGRGGSTYYADSVKGRFTISRDNSRNTLYLQMNSLRAEDTAIYYCAKDGYSSAWFFDYWGQGTLITVSS", "notes": "also called iPS 427493"}, "B6": {"name": "58G5 (antibody, human IgG2, lambda, V domains shown)", "VH": "B5 V domain with N35S, E46Q, R76K, I93V, F106Y, I116V", "VL": "B5 VL with G26S, I60V", "notes": "also called iPS 427539"}, "B7": {"name": "53D3 (antibody, human IgG2, kappa, V domains shown)", "VH": "EVQLVESGGGLVKPGGSLRLSCAASEFTFSTYYMSWVRQAPGKGLEWVSSISSSSSFIYYADSVKGRFTISRDNAKNSLYLQMNSLRAEDTAVYYCARDRIAAPGTYYYYGMDVWGQGTTVTVSS", "VL": "not shown", "notes": "also called iPS 427504"}, "B8": {"name": "57A8 (antibody, V domains shown)", "VH": "EIQLLESGGGLVQPGGSLRLSCVASGFTFSSYVMSWVRQAPGKGLEWVSVISGSGGSTYYADSVKGRFTISRDNSKTTLYLQMNSLRAEDTAVYYCAKGGTNYYYYYSGMDVWGQGTTVTVSS", "VL": "QSVLTQPPSVSGAPGQRVTISCTGSSSNIGAGYNVHWYQQLPGTAPKLLIYGNNNRPSGVPDRFSGSKSGTSASLAITGLQTEDEADYYCQSYDSSLSGWVFGGGTKLTVL", "notes": "also called iPS 427519"}, "B9": {"name": "88H9 (antibody, human IgG2, kappa, V domains shown)", "VH": "QVQLVESGAGVVQPGRSLRLSCAASGFTFSSYGMHWVRQAPGMGLEWVAVIWFDGSNEYYADSVKGRFTISRDNSKNTLYLQMNSLRAEDTAVYYCARERWFGELLDYWGQGTLVTVSS", "VL": "DIQMTQSPSSLSASVGDRVTITCRASQGIRNDLGWYQEKPGKAPKRLIYAASGLQGGDPSRFSGSGSGTEFTLTISSLQPEDFATYYCLQHNSYPTWTFGQGTKVEIKR", "notes": "also called iPS 427485"}, "B10": {"name": "76A4 (antibody, human IgG2, kappa, V domains shown)", "VH": "QVQLQQSGPGLVKPSQTLSLTCAISGDSVSSNSATWNWIRQSPSRGLEWLGRTYYRSKLYNDYAVSVKSRITINPDTSKNQFSLQLNSVTPEDTAVYYCAREVVAGPRWFDPWGQGTLVTVSS", "VL": "DIQMTQSPSSLSASVGDRVTITCRASQSVTSYLNWYQQKPGKAPKLLIYTASSLQSGIPSRFSGSGSGTDFTLTISSLQPEDFATYFCQQSYSTPRSFGQGTKLEIKR", "notes": "also called iPS 427529"}, "B11": {"name": "73C2 (antibody, human IgG2, kappa, V domains shown)", "VH": "B10 VH with N32S, Y55Q, L59W, Y60N, K79R", "VL": "B10 VL with V29F, T30S, K45E, T50A, I58V, T85S", "notes": "also called iPS 427544"}, "B12": {"name": "92D3 (antibody, human IgG2, kappa, V domains shown)", "VH": "QVQLVQSGAEVKKPGASVQVSCKASGYTFTGYYMHWIRQAPGQGLEWLGWIIPNSGGTNYAQKFQGRVTMTRDTSISTAYMELSRLRSDDTAVYYCATGSSWEGFDYWGQGTLVTVSS", "VL": "DIQMTQSPSSLSASVGDRVTITCRASQSISSYLNWYQQKPGTAPKFLIYGASRLQSGVPSRFSGSGSGTDFTLTISSLQPEDFATYYCQQSDTTPITFGQGTRLEIKR", "notes": "also called iPS 427564"}, "B13": {"name": "91F10_LC2 (antibody, human IgG2, kappa, V domains shown)", "VH": "B12 VH with V2G, Q19K, K23Q, G31A, I37V, L48M, I52N, Q65R, S100G", "VL": "B12 VL with T42K, G50A, T93S", "notes": "also called iPS 427572"}, "B14": {"name": "54E5 (antibody, human IgG2, kappa, V domains shown)", "VH": "QVQLVESGGGVVQPGRSLRLSCAASGFTFSTYGMHWVRQAPGKGLEWVAVIWYDGSNKDYADSVKGRFTVSRDNSRDTLYLQMNSLRAEDTAVYYCAREERDSYYHYGMDVWGQGTTVTVSS", "VL": "not shown", "notes": "also called iPS 427576"}, "B15": {"name": "56E1 (antibody, human IgG2, kappa, V domains shown)", "VH": "B14 VH with T28I, T31S", "VL": "not shown", "notes": "also called iPS 427554"}, "B16": {"name": "92E5 (antibody, human IgG2, kappa, V domains shown)", "VH": "EVHLLESGGGLVQPGGSLRLSCAASGFTFSSYAMSWVRQVPGKGLEWVSGISGRGGSTYYADSVKGRFTISRDNSKNTLYLQMDSLRAEDTAVYNCAIEVAGAFDIWGQGTMVTVSS", "VL": "DIQMIQSPSSLSASVGDRVTITCRASQSISHYLNWYQQKPGKAPKFLIYAASSLQSGVPSRFSGSGSGTDFTLTISSLQPEDFATYYCQQSFSSITFGQGTRLEIKR", "notes": "also called iPS 427559"}, "B17": {"name": "91G8 (antibody, human IgG2, kappa, V domains shown)", "VH": "B16 VH with H3Q, A23V, V40A, R54S, T58R, D84N, N95Y", "VL": "B16 VL with H31S, S94T", "notes": "also called iPS 427524"}, "B18": {"name": "89H9 (antibody, human IgG2, kappa, V domains shown)", "VH": "B16 VH with V40A, R54G, D84N, D90N, N95Y, V100M", "VL": "B16 VL with R18S, H31Y, F92Y", "notes": "also called iPS 427509"}, "B19": {"name": "anti-TL1A mAb 9C8 (antibody, human IgG1, kappa, N297G, V domains shown)", "VH": "QVQLQESGPGLVKPSETLSLTCTVSGGSISSYFWSWIRQPPGKGLEWIGYIYYSGNTKYNPSLKSRVTISIDTSKNQFSLKLSSVTAADTAVYYCARETGSYYGFDYWGQGTLVTVSS", "VL": "B10 VL with V29I, T30N, S31N, K39R, T50A, I58V, E81G, F87Y, S97T", "notes": "also called PL-39116; iPS 285412"}, "B20": {"name": "anti-TL1A mAb 2G11 (antibody, human IgG1, kappa, N297G, V domains shown)", "VH": "B19 VH with N56S, K58N, I69M, T99I, T112A", "VL": "B10 VL with V29I, T30N, S31N, K42I, T50A, A51T, I58V, T72S, S97T, L104V", "notes": "also called iPS 285396"}}, "note": "Changes are numbered by the printed parent chain."}
{"target": "T1, human TL1A (human, UniProt O95150 72-251, limits assumed)", "T1 construct": "also called huTL1A; TNFSF15", "T1 sequence (looked up)": "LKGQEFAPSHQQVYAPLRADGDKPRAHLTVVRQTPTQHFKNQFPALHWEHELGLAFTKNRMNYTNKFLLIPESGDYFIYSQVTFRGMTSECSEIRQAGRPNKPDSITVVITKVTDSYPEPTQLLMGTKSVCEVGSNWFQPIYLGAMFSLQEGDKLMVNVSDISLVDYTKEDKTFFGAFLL", "experiment": "hybridoma screening after immunisation with recombinant human TL1A soluble protein; member named through Tables A, C and D"}
{"binder": "B1", "binding result": "binds"}
{"binder": "B2", "binding result": "binds"}
{"binder": "B3", "binding result": "binds"}
{"binder": "B4", "binding result": "binds"}
{"binder": "B5", "binding result": "binds"}
{"binder": "B6", "binding result": "binds"}
{"binder": "B7", "binding result": "binds"}
{"binder": "B8", "binding result": "binds"}
{"binder": "B9", "binding result": "binds"}
{"binder": "B10", "binding result": "binds"}
{"binder": "B11", "binding result": "binds"}
{"binder": "B12", "binding result": "binds"}
{"binder": "B13", "binding result": "binds"}
{"binder": "B14", "binding result": "binds"}
{"binder": "B15", "binding result": "binds"}
{"binder": "B16", "binding result": "binds"}
{"binder": "B17", "binding result": "binds"}
{"binder": "B18", "binding result": "binds"}
{"target": "T2, human TL1A (human, UniProt O95150 72-251, limits assumed)", "T2 sequence (looked up)": "T1 sequence (looked up)", "experiment": "cell-based or functional assay", "units": {"NF-kB IC50 nM, huTL1A (0.2 nM)": "nM"}}
{"binder": "B19", "NF-kB IC50 nM, huTL1A (0.2 nM)": 0.131}
{"binder": "B20", "NF-kB IC50 nM, huTL1A (0.2 nM)": 0.223}
{"target": "T2, human TL1A", "experiment": "SPR, mAb captured on anti-human Fc chip, TL1A injected, 1:1 model", "units": {"Kd": "nM"}, "method": "On rate, off rate and equilibrium dissociation constant were calculated using 1:1 binding model on BIAevaluation software."}
{"binder": "B19", "Kd": 0.34}
{"binder": "B20", "Kd": 1.1}
